From the supplement of paper PMC9732359
± gives the uncertainty stated by the source.

Experiment: protein stability index of a GFP-peptide fusion (yeast GPS) (PSI 1-4); higher = more stable; sorted into four equal gates, so the index is relative within each strain
Details: pdr5∆
Summary of the method: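 Tiled 17-residue yeast protein peptides were fused downstream of GFP in a plasmid that also expresses Cherry, and the pooled library was carried in yeast. Mid-log cultures in leucine-free medium were sorted into four equal gates by GFP/Cherry fluorescence ratio, and plasmids from each gate were PCR-amplified and Illumina-sequenced, with reads assigned to strains by barcodes. The protein stability index for each peptide was each gate's read frequency times its gate number, summed.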

Row | Sequence | protein stability index
1 | YYEQFRPDLIKEDHPLE [SIR3] | 2.73 ± 0.066

Same assay, conditions: san1∆

Row | Sequence | protein stability index
2 | VVDTEETATLIMNELYR [SMC3] | 2.79 ± 0.1
3 | VVETITSLLNKVLKSGS [RRP42] | 2.54 ± 0.085
4 | VVFAVEKLITSKLLVPQ [PRE10] | 2.33 ± 0.13
5 | VVFDSNEAPPKTSLADW [YMR153W/NUP53] | 3.06 ± 0.073
6 | VVIAADTRSTQGPIVAD [PUP1] | 2.68 ± 0.19
7 | VVKGLPDISRAVINIRD [RPO31] | 2.6 ± 0.23
8 | VVNQPTGKIVDVVGTLS [FAS1] | 3.49 ± 0.092
9 | VVSTTAVIESVVNQPTG [FAS1] | 1.99 ± 0.11
10 | VVTRSKEAFEEEIKQSA [SMC1] | 3.11 ± 0.25
11 | VVYHPSNNELVRTNTLT [RPS8A] | 2.455 ± 0.019
12 | VYKIYNHVMPLKPVDKL [SIN4] | 1.63 ± 0.11
13 | WAVKEGPLAEEPIYGVQ [SNU114] | 2.76 ± 0.061
14 | WELYTDFNEIVQYLSGA [POP3] | 2.4 ± 0.075
15 | WIKFLLHTLYLRPASAI [SSN8] | 1.25 ± 0.068
16 | WKATYSNEFKCMSVITA [YGL100W/SEH1] | 1.51 ± 0.073
17 | WKTAEEVSALVRSLPKE [PRP8] | 1.28 ± 0.12
18 | WLEQFLSCVKNDTISED [NUT1] | 1.36 ± 0.059
19 | WLKEYEDETLRRIKEAE [YIL149C/MLP2] | 3.17 ± 0.069
20 | WLWPLCRGELKADIGKP [CDC53] | 1.98 ± 0.089
21 | WPKTRGVAMNPVDHPHG [RPL2A] | 2.74 ± 0.058
22 | WQQVTALAQQKLLTPQD [GAL11] | 2.18 ± 0.085
23 | WQSGLKMYDYEEKEESN [RPN11] | 2.93 ± 0.1
24 | WRFHTPQKYVLHPQLHE [SIN4] | 1.78 ± 0.13
25 | WSHNGPFETFDHASIRR [CYT1] | 2.79 ± 0.051
26 | WYLILSIISSKTSCVVE [RGR1] | 1.58 ± 0.26
27 | YAIKKKDELERVAKSNR [RPS5] | 3.44 ± 0.043
28 | YAKFKRNTMMIQCQIDK [RGR1] | 2.1 ± 0.065

Row | Sequence | protein stability index
29 | YASYFPYLLETYANVLI [RPN7] | 1.18 ± 0.096
30 | YATKRQEAIQQNRRLAF [PRP8] | 2.62 ± 0.25
31 | YATQVKTDNTVDKFDFY [RPT3] | 2.49 ± 0.052
32 | YCDPNTQEIRPVNTGVL [RRP40] | 2.62 ± 0.052
33 | YDIDEIDHSDESNRQSV [ESC2] | 3.23 ± 0.13
34 | YDPKDGLYKMMEERDGA [AAR2] | 3.4 ± 0.092
35 | YDRNSNNNHKDKKLLRR [SWI1] | 3.06 ± 0.06
36 | YEAYPNTSLPPSILEDS [FAS1] | 2.25 ± 0.037
37 | YEKAQKDLENAQVEMKS [SMC1] | 3.31 ± 0.052
38 | YFGENSSISWKNIAQCL [YJL039C/NUP192] | 1.93 ± 0.064
39 | YFKMFPASKHDKEVVYF [RPC34] | 3.26 ± 0.075
40 | YFYDLDVLKDGENNINF [BRN1] | 3.54 ± 0.079
41 | YGLIRGLKFASFIFQYY [PRP8] | 2.02 ± 0.093
42 | YHLTKAVKLGDLKKFTS [RPN3] | 1.54 ± 0.11
43 | YHRLSNKDMIKNLVKVL [CSN12] | 1.41 ± 0.25
44 | YIFFGPIYYQKLKHMVL [RET1] | 1.28 ± 0.12
45 | YIHRIGRTGRAANEGTA [PRP28] | 3.26 ± 0.053
46 | YIRVNHADKDTFSSSIS [POP8] | 2.52 ± 0.053
47 | YISAELYAQLRENGLVP [SNU114] | 2.48 ± 0.1
48 | YKRQKSSLLYTYDENDD [ESC2] | 1.17 ± 0.11
49 | YKYKMRYVYAHFPINVN [RPL9A] | 2.08 ± 0.078
50 | YLDADVAKLANWFLEVY [YML031W/NDC1] | 2.91 ± 0.12
51 | YLEDIIGTANYKPLIEE [SMC4] | 3.17 ± 0.077
52 | YLHDNASKVLLKIFLYL [IRR1] | 1.42 ± 0.093
53 | YLIDHIKVDGAVGNLGN [RPL22B] | 2.53 ± 0.066
54 | YLKVSEEEIKKFDSRIR [PRP8] | 2.78 ± 0.066
55 | YLVEAPWNDDYPFLLSF [YML103C/NUP188] | 1.43 ± 0.097

Row | Sequence | protein stability index
56 | YMFANLEFSIYHRLSNK [CSN12] | 2.42 ± 0.11
57 | YMLIEEAASSNKSFIVD [ITC1] | 2.78 ± 0.041
58 | YMRLWEINETEFIRCGC [RMP1] | 3.55 ± 0.13
59 | YNHNDGGDGRDYKGAKL [RRI1] | 3.14 ± 0.078
60 | YNIELPLPPRIDPSVTM [RPT1] | 2.47 ± 0.12
61 | YNLRSLNLINAKLWFYI [RPN3] | 1.38 ± 0.083
62 | YNNRKCWPKDSRMRLIR [PRP8] | 2.19 ± 0.11
63 | YNRHKLQELIVNGPNVH [RPO31] | 1.2 ± 0.17
64 | YNRYRDLMISCLMNQET [MTR3] | 2.31 ± 0.084
65 | YPEDKKTQQNEKSENGE [RPN3] | 3.22 ± 0.041
66 | YPVYTRLRTLCRDSDDH [DIS3] | 2.29 ± 0.24
67 | YQLNGVAPFMIKYEFNG [YMR129W/POM152] | 2.62 ± 0.082
68 | YQSSVQEPFLNSSNYAE [PRP8] | 2.78 ± 0.053
69 | YRNNEPAGFTHKLSNWL [YDL088C/ASM4] | 2.7 ± 0.06
70 | YSDENDPSISNNIRQAI [RRP4] | 3 ± 0.065
71 | YSENGKHDSLRYRLLSD [RPN1] | 2.51 ± 0.1
72 | YSIEMKPYSGKLLKVCL [ECM29] | 2.51 ± 0.076
73 | YSLEAIKLGSTAIGIAT [PUP2] | 1.43 ± 0.15
74 | YTDELEEDVYLDPLARV [FAS2] | 3.54 ± 0.07
75 | YTYHSTNKDNKAELIKP [ARP9] | 3.06 ± 0.044
76 | YTYSSTLSHLRRTNTPI [RPB2] | 2.23 ± 0.063
77 | YVAPTKKEYIELDILNK [SRB4] | 2.74 ± 0.13
78 | YVEAQHKLVFVVRIKGI [RPL7A] | 1.25 ± 0.094
79 | YVLSTAVEFESVPLRKG [BRR2] | 1.93 ± 0.083
80 | YVSDSDDSSSDNDSLTD [SIR4] | 2.67 ± 0.056
81 | YYEQFRPDLIKEDHPLE [SIR3] | 3.02 ± 0.043
